Test [1] concerns the target T1, human TNFR2 (extracellular domain) (human, UniProt P20333 23-257).
T1 construct: also called hTNFR2; human tumor necrosis factor receptor 2
T1 sequence: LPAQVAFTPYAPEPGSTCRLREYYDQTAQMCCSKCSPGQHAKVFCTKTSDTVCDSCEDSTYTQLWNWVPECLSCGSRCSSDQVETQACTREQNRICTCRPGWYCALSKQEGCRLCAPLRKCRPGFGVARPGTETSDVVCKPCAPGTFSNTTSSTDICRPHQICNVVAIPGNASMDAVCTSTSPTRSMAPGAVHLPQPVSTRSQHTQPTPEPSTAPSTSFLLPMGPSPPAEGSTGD
Description: SPR (Carterra LSA), V-body coupled to HC200M chip, TNFR2 extracellular domain in solution, 8 concentrations from 200 nM. Here is the method:
(§1) Binding affinities of the V-bodies to their respective target was determined by surface plasmon resonance (SPR) using a Caterra LSA instrument. Affinity purified V-bodies were covalently crosslinked onto an LSA HC200M chip using EDC/Sulfo NHS. The interaction with human, cynomolgus, and mouse TNFR2 (extracellular domain) (V-body coupling concentration: human, […]; cynomolgus/mouse, 4 μM) was measured under physiological conditions (Running Buffer: HBST-50 mM HEPES pH 7.4, 150 mM NaCl, 0.1% (w/v) BSA, 0.05% (v/v) Tween20, 25° C.) using eight different antigen concentrations (3-fold serial dilutions, start at 200 nM). Resulting sensorgrams (FIGS. 9A-9F) were analyzed and equilibrium-binding affinities (KDs) were calculated using Carterra's data analysis software.

In test [2] the target is T2, mouse TNFR2 (extracellular domain) (mouse, UniProt P25119 23-258).
T2 construct: also called mTNFR2
T2 sequence: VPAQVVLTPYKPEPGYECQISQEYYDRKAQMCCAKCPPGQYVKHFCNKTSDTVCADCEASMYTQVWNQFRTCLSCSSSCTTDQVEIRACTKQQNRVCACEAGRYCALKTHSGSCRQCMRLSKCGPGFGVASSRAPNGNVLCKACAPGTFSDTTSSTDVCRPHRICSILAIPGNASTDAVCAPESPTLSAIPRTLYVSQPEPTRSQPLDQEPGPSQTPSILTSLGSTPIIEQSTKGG
Briefly: SPR (Carterra LSA), V-body coupled to HC200M chip, TNFR2 extracellular domain in solution. As for the experimental part: as §1

Here are results for five molecules from US20260217845A1 (ODYSSEY THERAPEUTICS, published 2026).

B1: ODY-31G3 (VHH)
VHH: EVQLVESGGGLVQAGGSLRVSCAASGSIFRADAMGWHRQVPGKPREFVAGIRSDGFTNYAEAVKGRFTISWDTVKNTVYLQMNSLKPEDTAVYTCYYQSLSSPNYGQVFWGQGTQVTVSS
For the molecule B1, the binding result in test [1] was “binds”; in test [2], “no binding (tested: 200 nM (highest antigen concentration))”.

B2: ODY-35A10 (VHH)
VHH: EVQLVESGGGLVEAGGSLRLSCAASGRTFGSYTMGWFRQAPGREQEFLASIRRTGGSTSYADSVKGRFTISRDNAKKAVYLQMNSLKPEDTAVYYCAAAPTGRAFTYWGQGTQVTVSS
For B2, the binding result is on record as “binds” in test [1] and “no binding (tested: 200 nM (highest antigen concentration))” in test [2].

B3: ODY-37C7 (VHH)
VHH: EVQLVESGGGLVQPGGSLRLSCAASGFTFDDIAMTWVRQAPGKGLEWVSSIYSYGPNTYYADSVKGRFTISTDSAKNTLYLQMNSLKPEDTAVYYCAADSDLSTVVVGPHDYWGQGTQVTVSS
For B3, the binding result was “binds” in test [1] and “no binding (tested: 200 nM (highest antigen concentration))” in test [2].

B4: ODY-31D6 (VHH)
VHH: EVQLVESGGGLVQAGGSLRLSCAASGSIVSTNGMGWHRQVPGKGRELVAGIRSDGFTNYADSVKGRFTISSDNVKNTVYLQMNSLKAEDSGVYFCYYQALSSPNYGQTFWGQGTQVTVSS
With B4, the binding result in test [1] is “binds”; in test [2], “no binding (tested: 200 nM (highest antigen concentration))”.

B5: ODY-33D4 (VHH)
VHH: EVQLVESGGGLVQAGGSLRLSCAASGRTFSDYGMGWFRQAPGKDSEFVAAINWSNGRTNYADSVKGRFTISRDNAKNTGYLEMNSLKVEDTAVYYCAATPSGKAYSYWGQGTQVTVSS
As to B5, the binding result was “binds” in test [1] and “no binding (tested: 200 nM (highest antigen concentration))” in test [2].
